From the supplement of paper PMC12042874
± gives the uncertainty stated by the source.

Test: amyloid nucleation score (Sup35N fusion, yeast selection) (log enrichment); library NNK1; higher = more nucleation; inactive = no reads after selection
How it was run: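 Peptides of 20 random codons fused to Sup35N were expressed in psi-negative yeast, induced 24 hours with 100 μM copper sulfate, then grown 7 days at 30°C on medium lacking adenine and uracil. Input and output plasmid inserts were Illumina-sequenced. Nucleation score is the DiMSum log enrichment of output over input reads, centred on the mode score of non-aggregating sequences, excluding sequences with under 100 input reads. Random libraries had three technical output replicates.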

Substance | amyloid nucleation score
VLATGVCACTGVYTFMTWWV | -0.455 ± 0.47
VLCVFCGNLHMIVLDCAFDA | 8.589 ± 0.051
VLESIQGCYFLGASWIAEFR | 0.409 ± 0.48
VLFLDI | 0.793 ± 0.58
VLFYQF | -0.382 ± 0.69
VLGMCGTRYIDFF | 3.12 ± 0.085
VLGSVIGFLWNP | 2.23 ± 0.088
VLGYSRPLSDTSSVGTIIPA | 0.172 ± 0.38
VLKCFSLEVVTWDSACLAGL | 0.252 ± 1.1
VLKCRERRFRIHGHWTRRGP | -0.63 ± 0.47
VLLCNFRSRVWRYRCFKAFS | 0.93 ± 0.19
VLLTR | 0.505 ± 0.36
VLLWVGLTYATGLGRRSSLF | -1.3 ± 0.97
VLMLRSGWPQRRPHFG | -0.301 ± 0.76
VLMQVSTLAAWDSKRDMTSC | 0.528 ± 0.35
VLMVPWVDGSCSS | -1.06 ± 1.3
VLPCSGQA | 0.79 ± 0.26
VLTNESRGYTIRLGSYSRFV | 2.4 ± 0.49
VLTTGTYFATVYIK | inactive
VLTVAGF | -0.561 ± 0.44
VLVVTALLSRV | 1.67 ± 0.22
VMKDTQLLCNFRVSRVLMFE | inactive

Substance | amyloid nucleation score
VMLVVMGLFELFWLSNVV | inactive
VMVWLGDREAGLCESELGAG | 0.12 ± 0.45
VMWSVDFWYPAMSGVIPDQF | 1.45 ± 0.65
VNAIYDSWLSL | inactive
VNLFLVMKFK | 6.676 ± 0.043
VNLRKEPDNRGLGLDFRLN | 0.001 ± 0.78
VNRALAFNCWSALILGNAVV | -0.608 ± 0.31
VNRYFVFVSVMIYMLCESRF | 0.295 ± 0.75
VNSNPSSGAFWI | 0.571 ± 0.87
VNVIWAFYNN | 5.7 ± 0.072
VNVSVDFKREMRIPWLAGIC | -0.651 ± 0.67
VNVTCMFWD | 4.05 ± 0.058
VNYISHTQMKTR | 0.913 ± 0.41
VNYPEDPTSKEIIRHSLGTG | -1.13 ± 2.4
VPAVSCMVFTAQFDSGVYSC | -0.03 ± 0.73
VPFLYVG | -0.792 ± 0.62
VPFSGSDNGGTYDCLDWNEG | -0.299 ± 0.63
VPIFVNKFVDYTSLSCMHCL | 7.379 ± 0.06
VPIVGDLEKVMGCYSYWANK | -0.011 ± 0.18
VPSFITYLVVDLWDALQGYH | 0.409 ± 0.42
VPVGRWRSWICVRIRL | 0.831 ± 0.65
VPVWFSTSISQWSNLQ | -1.09 ± 2.4

Substance | amyloid nucleation score
VPWFLHELQTVLAKVNRGQR | -0.165 ± 0.33
VQEFYDLKEYWS | -0.265 ± 0.35
VQFGQIIEWVFHMLVSTTTI | -0.022 ± 0.36
VQKKRLDGLVKRGLYIRAIG | 1.2 ± 0.69
VQNGGSLTMPRALLANTWMS | -0.671 ± 0.42
VRAELVTVGCLRRATYYRPK | -0.319 ± 1.2
VRAEVGQDRVGRM | 0.09 ± 0.44
VRAFGYDGLHLVITCYHCRH | 0.726 ± 0.77
VRCNC | 0.261 ± 0.5
VRDSVTLFPK | -0.277 ± 0.77
VRFIFSRSIGLQ | -0.361 ± 0.42
VRFWTLEFSPVRFSS | -1.11 ± 0.86
VRGLWFYN | 0.088 ± 0.72
VRGVARYNRKFGDCFYPTHG | 0.065 ± 1.5
VRLIRTPSDIGTYIIGCREG | -0.065 ± 0.38
VRLKVKCIMIH | 0.962 ± 0.72
VRLLTFDITSLFRVFYVKHR | 0.103 ± 0.67
VRLSFPKRLSISSAVCNRGS | 0.279 ± 0.62
VRMKIGNFSCCRYWKPPLYT | 1.29 ± 0.61
VRMSFRLVEPY | -0.301 ± 0.81
